Experimental data taken from patent US20240209061A1, “FUSION PROTEINS AND USES THEREOF” (Pfizer Inc., priority 2020, published 2024).
One block for each compound: values may come before it.

Assays:
[1] = tested on: EMT6 murine breast cancer cells; assay: EMT6 breast cancer model, combination with talazoparib; assay type: in vivo, mouse
Description: EMT6murine breast cancer cells (3×10^5) were orthotopically implanted in the mammary fat pad of female Balb/c mice. When tumors reached ˜90 mm^3 (day 5 after implantation), mice were randomized and dosed with PBS vehicle control, CD80-K89Q-D90Q-E23C-A26C-Fc (0.1 or 1 mg/kg), and/or 0.33 mg/kg talazoparib (Tala). CD80-D90Q-Fc was dosed on Days 0 and 3, talazoparib was dosed daily. Tumor volume was determined by caliper measurements obtained in 2 dimensions and calculated as width^2×length/2. Error bars are depicted as ±SEM

recombinant soluble CD28 = biological target: T1, recombinant soluble CD28 (Homo sapiens, UniProt P10747); assay: ELISA binding to recombinant soluble CD28; conditions: standard ELISA, FIG. 2A
T1 construct: Recombinant soluble CD28 and CTLA-4 proteins (from Creative BioMart, Product #CD28-3910H, CTLA-4-2232H) were immobilized; purchased Creative BioMart CD28-3910H
Description: Binding affinity of purified CD80-Fc fusion proteins (WT and variant) to recombinant soluble CD28 and CTLA-4 proteins was determined by standard ELISA. Recombinant soluble CD28 and CTLA-4 proteins (from Creative BioMart, Product #CD28-3910H, CTLA-4-2232H) were immobilized on 96 well microtiter plate (Thermo Scientific, Product #436110) in bicarbonate buffer at 4° C. overnight. After washing with 1×PBS containing 0.05% Tween 20 (wash buffer) plates were incubated with blocking buffer, 5% BSA in PBS, for 1 hour at room temperature. A serial dilution of CD80-Fc fusion proteins and human IgG1 isotype control antibody was prepared in blocking buffer, added into the plate and incubated at room temperature for 1 hour. Following washing 3× with wash buffer, 1:4000 dilution of HRP conjugated secondary anti-human IgG1 antibody (R&D Systems, MAB110-100) was added into the plate and incubated at room temperature for 1 hour. Plates were washed 3× with wash buffer and a 100 μl of LumiGlo (SeraCare, Product #5430-0040) reagent added into each well, incubated for 5 minutes at room temperature before reading luminescence signal in EnSight™ plate reader (PerkinElmer).

[2] = tested on: Jurkat-IL-2-Luc reporter cells; assay: Jurkat-IL-2-Luc and HCT116-CD64 reporter co-stimulation assay; assay type: cell-based, human
Excerpt: A T cell co-stimulation assay was designed based on T Cell Activation Bioassay (IL-2) Kit from Promega (Product #J1631). The assay consisted of a genetically engineered Jurkat T cell line that expresses luciferase reporter driven by an IL-2 promoter. Co-engagement of T cell antigen receptor (TCR/CD3) and CD28 co-stimulatory receptor induces activation of T cells and downstream intracellular signaling pathways that in turn regulate the expression of luciferase reporter. As described above, HCT116 human colon cancer cell line was used for TCR engagement using the CDH3×CD3 bispecific and genetically engineered by lentiviral transduction to express human FCγRI.
A 96 well culture plate was seeded with HCT116 parental or HCT116-CD64 cells at 40,000 cells per well in 100 μL RPMI with 10% HI FBS and grown overnight at 37° C. in CO2 incubator. To each well, Jurkat reporter cells (100,000 per well) and 10 μL of the CDH3×CD3 bispecific (8 ng/ml final concentration) were added. 10 μL of serial dilutions of variant CD80-Fc fusion proteins with concentrations ranging from 0-1000 ng/ml (final concentrations per well) was added with appropriate controls. Assay plates were incubated for 6 hours at 37° C. in CO2 incubator for before harvesting culture supernatants and transferring to new plates. Following equilibration, 80 μL of BioGlo luminescence reagent (BioGlo Luciferase assay kit, Promega, G7940) was added into each well. Plates were incubated for 5 minutes before reading luminescence on the EnSight™ plate reader (PerkinElmer).
Jurkat is an immortalized human T cell line, and the Jurkat IL-2-reporter assay assesses the CD28-mediated signaling resulting in activation of the IL-2 promoter. The activity of CD80-Fc fusion proteins was measured using the co-culture HCT116-CD64-Jurkat IL-2 reporter assay, as described in Example 2, but using 20 ng/ml CDH3×CD3 bispecific.

[3] = tested on: NY-ESO1-TCR+ Jurkat reporter cells; assay: Jurkat-NYESO1-IL-2-Luc and A375-CD64 co-stimulation assay; assay type: cell-based, human
Excerpt: Jurkat-IL-2-Luc reporter cells (Promega, Product #J1631) were engineered with T cell receptor, TCR (Wargo J. Cancer Immunol Immunother 2009; Zhao Y. J Immunol 2005, Li Y, Nat Biotechnol 2005) against HLA-A2 restricted NY-ESO1 (SLLMWITQC-SEQ ID NO: 19) epitope using lentiviral transduction system. Human melanoma cells A375, which express human HLA-A*0201, were transduced with lentiviral vector containing endogenous codon for NY-ESO1 gene (Refseq accession NM_001327.2, CCDS14758.1). Upon expression, the construct underwent proteolytic cleavage at the ubiquitin/epitope junction, thus generating free, cytoplasmic epitope, which can be translocated into the endoplasmic reticulum and loaded onto class I HLA. A375-NY-ESO1 positive cells were treated with IFNγ to induce HLA expression and NY-ESO1 antigen presentation. The HLA expression and the antigen presentation was confirmed by Western Blot. The NY-ESO1^+-A375 cells were further engineered to express human FCγRI (CD64, GenBank:AAA58414.1, RefSeq:P12314.1) for cell surface assembly and displaying of CD80-Fc fusion proteins. The expression of FCγRI was confirmed by flow cytometry analysis.
A 96 well culture plate was seeded with NY-ESO1^+-A375 cells or NY-ESO1^+/FCγRI^+-A375 at 40,000 cells per well in 100 µL growth media (RPMI, 10% Heat Inactivated FBS, 200 μg/mL Hygromycin B, 1 mM sodium pyruvate, 0.1 mM MEM NEAA, 1 μg/mL puromycin) containing 10 ng/ml of human IFNγ (R&D Systems, product #285-IF) to induce MHC-A2 expression and grown overnight at 37° C. in CO2 incubator. To each well, NY-ESO1-TCR^+ Jurkat reporter cells, 100,000 (in 20 μL media), were added. 20 μL of serial dilutions of variant CD80-Fc fusion proteins with concentrations ranging from 0-1000 ng/ml (final concentrations per well) was added with appropriate controls. Assay plates were incubated for 6 hours at 37° C. in CO2 incubator. Following equilibration, 80 μL BioGlo luminescence reagent (BioGlo Luciferase assay kit, Promega, G7940) was added into each well. Plates were incubated for 5 minutes before reading luminescence on the EnSight™ plate reader (PerkinElmer).

[4] = biological target: CD28 expressed on Jurkat T cell line / human T cells (human) (UniProt P10747); assay: cell-based or functional assay
[5] = AC-SINS self-interaction assay; assay type: physicochemical; conditions: Table 6
Description: Variant CD80-Fc fusion proteins were assessed by measuring non-specific binding using a DNA- and insulin-binding ELISA (Avery et al., MAbs. 2018 February/March; 10(2): 244-255) and for self-interaction in an AC-SINS assay (affinity-capture self-interaction nanoparticle spectroscopy; Liu et al., 2014, mAbs 6:483-92). DNA- and insulin-binding scores were calculated as the signal ratio of the ELISA signal of the CD80-Fc fusion protein at 10 μg/ml to the ELISA signal in the absence of the Fc-fusion protein (buffer only). For the AC-SINS assay, proteins are captured by anti-human Fc antibodies coated on gold nanoparticles. […] The score ranges obtained from these in vitro assays correlate well with in vivo clearance using huFcRn transgenic (Tg32) mouse. Therapeutic proteins with high scores are at high risk for rapid clearance and unfavorable PK and therapeutics that score low are at low risk and favorable PK.

[6] = Thermal stability by Differential Scanning calorimetry (DSC); assay type: physicochemical; conditions: PBS
Description: There is a correlation between the thermal stability of a protein with the overall stability of the protein. Enhanced thermal stability often provides improved manufacturability and longer shelf life/stability. Thermal stability of variant CD80-Fc fusion proteins was assessed by Differential Scanning calorimetry (DSC). Variant CD80-Fc fusion proteins were analyzed using a MicroCal VP-DSC instrument. […] Tables 8-10 show the first thermal transition temperature (Tm1) of CD80-Fc fusion proteins and the enhanced thermal stability of variant CD80-Fc fusion proteins compared to CD80-WT-Fc fusion proteins.

[7] = tested on: human peripheral blood mononuclear cells (PBMCs); assay: Human PBMC IL-2 production assay with plate-bound anti-CD3; assay type: cell-based; conditions: Donor 418; 0.3 ug/ml anti-CD3
Description: The ability of the variant CD80-Fc fusion proteins to promote IL-2 production in the context of anti-CD3 (to stimulate T cell receptor signaling) in human peripheral blood mononuclear cells (PBMCs) was tested. To bind anti-CD3 antibody on the plate, the anti-human-CD3 (clone HIT3a, BD Pharmingen) was incubated in 96-well plates at 4° C. overnight at 1 μg/ml unless otherwise noted. Human PBMCs were isolated from freshly collected human whole blood using Ficoll-Paque Plus. Human PBMCs (100,000 per well) were incubated with plate-bound anti-CD3 and the indicated concentrations of soluble CD80-Fc fusion protein in RPMI+10% HI-FBS, pen/strep, sodium pyruvate and non-essential amino acids. After 48 hours incubation, supernatants were collected and IL-2 measured by the Quantikine human IL-2 ELISA kit from R&D.
Additional CD80-Fc fusion proteins were tested in the same PBMC assay, at the concentration of anti-human-CD3 (clone HIT3a, BD Pharmingen) noted.

Compound: Cn1ncnc1[C@H]1c2n[nH]c(=O)c3cc(F)cc(c23)N[C@@H]1c1ccc(F)cc1 [Talazoparib, (8S,9R)-5-fluoro-8-(4-fluorophenyl)-9-(1-methyl-1H-1,2,4-triazol-5-yl)-8,9-dihydro-2H-pyrido[4,3,2-de]phthalazin-3(7H)-one, reference compound]
% tumor growth inhibition ([1]; Day 20, Talazoparib 0.33 mg/kg alone): 10.9%
Day 20 tumor volume ([1]; Talazoparib 0.33 mg/kg daily alone): 1750.1 mm^3

Compound: CD80-D90N-Fc: variant CD80 ECD (D90N) fused to human IgG1 Fc
enhanced co-stimulation compared to CD80-WT-Fc [3]: about 4 fold

Compound: CD80-K89Q-D90Q-161C-Fc: disulfide stabilized variant CD80-Fc fusion protein (K89Q, D90Q, I61C)
AC-SINS Score [5]: −1
DSC Tm1 [6]: 64.10 ± 0.17 °C

Compound: CD80-K89Q-D90Q-V22C-G45C-Fc: disulfide stabilized variant CD80-Fc fusion protein (K89Q, D90Q, V22C, G45C)
AC-SINS Score [5]: −1
DSC Tm1 [6]: 68.67 ± 0.22 °C

Compound: CD80-T28V-T57V-Fc: non-cysteine stabilized variant CD80-Fc fusion protein
DSC Tm1 [6]: 64 °C
EC50 [7]: 2.64 nM

Compound: CD80-V11L-T62Y-Fc: non-cysteine stabilized variant CD80-Fc fusion protein
DSC Tm1 [6]: 58.76 ± 0.14 °C
EC50 [7]: 3.34 nM

Compound: CD80-V11L-V22F-Fc: non-cysteine stabilized variant CD80-Fc fusion protein
DSC Tm1 [6]: 61.52 ± 0.12 °C
EC50 [7]: 4.95 nM

Compound: CD80-V22F-T28V-T57V-Fc: non-cysteine stabilized variant CD80-Fc fusion protein
DSC Tm1 [6]: 64 °C
EC50 [7]: 5.13 nM

Further lines, with some results ahead:

binding affinity to CD28 compared to WT CD80-Fc (recombinant soluble CD28): increased binding affinity to CD28
Compound: CD80-D90K-Fc: variant CD80 ECD (D90K) fused to human IgG1 Fc
enhanced co-stimulation compared to CD80-WT-Fc [2]: ~8 fold
enhanced co-stimulation compared to CD80-WT-Fc [3]: about 4 fold

IL-2 EC50, human PBMC assay with plate-bound anti-CD3 (average of 5 donors) [4]: 24.2 nM
Compound: CD80-D90Q-E23C-A26C-Fc (Fc fusion)

binding affinity to CD28 compared to WT CD80-Fc (recombinant soluble CD28): increased binding affinity to CD28
Compound: CD80-K89D-D90K-Fc: variant CD80 ECD (K89D, D90K) fused to human IgG1 Fc
enhanced co-stimulation compared to CD80-WT-Fc [2]: ~8 fold

binding affinity to CD28 compared to WT CD80-Fc (recombinant soluble CD28): increased binding affinity to CD28
Compound: CD80-K89D-D90N-Fc: variant CD80 ECD (K89D, D90N) fused to human IgG1 Fc
enhanced co-stimulation compared to CD80-WT-Fc [2]: about 4 fold
enhanced co-stimulation compared to CD80-WT-Fc [3]: about 8 fold

binding affinity to CD28 compared to WT CD80-Fc (recombinant soluble CD28): increased binding affinity to CD28
Compound: CD80-K89D-D90Q-Fc: variant CD80 ECD (K89D, D90Q) fused to human IgG1 Fc
enhanced co-stimulation compared to CD80-WT-Fc [2]: about 4 fold
enhanced co-stimulation compared to CD80-WT-Fc [3]: about 8 fold

binding affinity to CD28 compared to WT CD80-Fc (recombinant soluble CD28): increased binding affinity to CD28
Compound: CD80-K89D-Fc: variant CD80 ECD (K89D) fused to human IgG1 Fc

binding affinity to CD28 compared to WT CD80-Fc (recombinant soluble CD28): increased binding affinity to CD28
Compound: CD80-K89Q-Fc: variant CD80 ECD (K89Q) fused to human IgG1 Fc

IL-2 EC50, human PBMC assay, donor 418, anti-CD3 0.3 ug/ml [4]: 2.64 nM
Compound: CD80-T28V-T57V-Fc (Fc fusion)

IL-2 EC50, human PBMC assay, donor 418, anti-CD3 0.3 ug/ml [4]: 3.34 nM
Compound: CD80-V11L-T62Y-Fc (Fc fusion)

IL-2 EC50, human PBMC assay, donor 418, anti-CD3 0.3 ug/ml [4]: 4.95 nM
Compound: CD80-V11L-V22F-Fc (Fc fusion)

IL-2 EC50, human PBMC assay, donor 418, anti-CD3 0.3 ug/ml [4]: 5.13 nM
Compound: CD80-V22F-T28V-T57V-Fc (Fc fusion)
